According to patent US20100184837:

Columns and labels:
[1] = target: HCV envelope glycoprotein E2 (expressed on CT26-HCV-E2 cells) (Hepatitis C virus) (UniProt P27958); assay: flow; conditions: strongest binding among rounds; 8 ug ssDNA with 10^6 cells
[2] = target: GST-E2 (HCV envelope glycoprotein E2) (Hepatitis C virus) (UniProt P27958); assay: competition; conditions: decreased from 36.7% without aptamer
Sequence of GST-E2 (HCV envelope glycoprotein E2) (Hepatitis C virus) (P27958 384-746): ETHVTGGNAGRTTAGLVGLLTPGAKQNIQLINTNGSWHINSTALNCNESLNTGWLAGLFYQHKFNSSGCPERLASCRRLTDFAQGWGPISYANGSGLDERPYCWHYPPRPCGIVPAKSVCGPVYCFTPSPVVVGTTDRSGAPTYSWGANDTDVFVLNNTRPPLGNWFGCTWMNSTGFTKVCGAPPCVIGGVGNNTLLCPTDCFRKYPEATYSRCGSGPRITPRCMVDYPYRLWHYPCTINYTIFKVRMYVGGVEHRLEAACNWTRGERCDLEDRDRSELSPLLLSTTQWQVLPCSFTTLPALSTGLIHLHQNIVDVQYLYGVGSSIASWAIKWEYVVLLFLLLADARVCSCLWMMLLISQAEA

Sequence of HCV envelope glycoprotein E2 (expressed on CT26-HCV-E2 cells) (Hepatitis C virus) (P27958 384-746): as above

GCGGAATTCTAATACGACTCACTATAGGGAACAGTCCGAGCCNNNNNNNNNNNNNNNNNNNNNNNNNNNNNNGGGTCAATGCGTCATA [13th round ssDNA aptamer library]
binding (% cells bound) [1]: 89
activity (% E2 binding to Huh 7.5.1 cells) [2]: 23.2
